These results are taken from PMC7448930.

The test deals with HCoV-19 fusion core (HR1 and HR2 linked with a peptide linker) (HCoV-19). The experiment in a line: crystal structure; HR1 and HR2 linked on one chain by a peptide linker; 1.5 Å; one HR1/HR2 complex in the asymmetric unit, trimer by symmetry operations.

For the substance “HCoV-19 fusion core (HR1 and HR2 linked with a peptide linker) (domain or fragment)”, the stoichiometry N turned out to be 3.
